From US20140079717A1, “Compositions and Methods to Prevent Cell Transformation and Cancer Metastasis” (CORNELL UNIVERSITY, priority 2011, published 2014)

Experiment: In vitro liposome fractionation assay
Type: binding
Settings: 5 μg protein, 15 minute incubation, centrifugation, SDS-PAGE
Description: FIG. 51. Recombinant tTG can associate with lipid vesicles lacking any protein content. Synthetic liposomes were prepared by extrusion and then equal amounts of this preparation were combined with either 5 μg recombinant tTG (tTG WT) or 5 μg bovine serum albumin (BSA). After a 15 minute incubation, the liposomes were pelleted by centrifugation, and the resulting supernatant (Sup) and liposome (Pellet) fractions were resolved by SDS-PAGE. The gel was then stained with Quick Blue to detect the proteins. A lane containing recombinant tTG (Rec. tTG WT) was included as a standard.
To obtain the results depicted in FIG. 51, the following procedures were used. In vitro liposome fractionation assays—Synthetic liposomes were prepared from a lipid mixture containing 35% phosphatidylethanolamine, 25% phosphatidylserine, 5% phosphatidylinositol, and 35% cholesterol re-suspended in TBSM buffer (20 mM Tris, pH 7.5, 150 mM NaCl, and 2 mM MgCl2). The lipids were extruded through an 8 micron filter, pelleted by centrifugation at 13,000 rpm for 15 minutes, and re-suspended in TBSM buffer. Equal amounts of the lipid preparation were then incubated with either recombinant wild-type tTG or BSA for 15 minutes, followed by centrifugation at 13,000 rpm for 10 minutes at room temperature. […]

B1: tTG WT: purified recombinant wild-type tissue transglutaminase (protein, UniProt P21980 2-687, looked up)
Protein-glutamine …: AEELVLERCDLELETNGRDHHTADLCREKLVVRRGQPFWLTLHFEGRNYEASVDSLTFSVVTGPAPSQEAGTKARFPLRDAVEEGDWTATVVDQQDCTLSLQLTTPANAPIGLYRLSLEASTGYQGSSFVLGHFILLFNAWCPADAVYLDSEEERQEYVLTQQGFIYQGSAKFIKNIPWNFGQFEDGILDICLILLDVNPKFLKNAGRDCSRRSSPVYVGRVVSGMVNCNDDQGVLLGRWDNNYGDGVSPMSWIGSVDILRRWKNHGCQRVKYGQCWVFAAVACTVLRCLGIPTRVVTNYNSAHDQNSNLLIEYFRNEFGEIQGDKSEMIWNFHCWVESWMTRPDLQPGYEGWQALDPTPQEKSEGTYCCGPVPVRAIKEGDLSTKYDAPFVFAEVNADVVDWIQQDDGSVHKSINRSLIVGLKISTKSVGRDEREDITHTYKYPEGSSEEREAFTRANHLNKLAEKEETGMAMRIRVGQSMNMGSDFDVFAHITNNTAEEYVCRLLLCARTVSYNGILGPECGTKYLLNLNLEPFSEKSVPLCILYEKYRDCLTESNLIKVRALLVEPVINSYLLAERDLYLENPEIKIRILGEPKQKRKLVAEVSLQNPLPVALEGCTFTVEGAGLTEEQKTVEIPDPVEAGEEVKVRMDLLPLHMGLHKLVVNFESDKLKAVKGFRNVIIGPA
  protein pelleted with synthetic liposomes: nearly all
